{"source": "the nanobody polyreactivity screen of Harvey et al. (2022)", "data": [{"experiment": "yeast display, Sf9 membrane polyspecificity reagent, FACS + sequencing; frameworks hold sequencing errors", "how_it_was_run": "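Nanobodies from a synthetic yeast display library (Saccharomyces cerevisiae BJ5465), induced 36–48 hours with galactose, were stained 1 hour at 4 °C with 10% biotinylated, detergent-solubilized Sf9 membrane reagent, enriched on streptavidin microbeads, then FACS-sorted. Anti-HA (expression) and streptavidin (reagent binding) fluorescence set low and high (top ~1%) gates. Polyreactivity labels come from the gate of origin. Genes were colony-PCR amplified, MiSeq 2 × 250 sequenced and filtered by CDR length.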", "values": [{"sequence": "QVQLVESGGGLVQAGGSLRLSCAASGSIFRQYAMGWYRQAPGKERELVAAINYSGGNTYYADSVKGRFTISRDNAKNTVYLQMNSLKPEDTAVYYCAADSVRHYWWAYYYWGQGTQVTVSS", "polyreactivity (PSR sort gate)": "low polyreactivity"}, {"sequence": "QVQLVESGGGLVQAGGSLRLSCAASGSIFRQYAMGWYRQAPGKERELVAAISRGGITYYADSVKGRFTISRDNAKNTVYLQMNSLKPEDTAVYYCAARYGRGERGGFYWGQGTQVTVSS", "polyreactivity (PSR sort gate)": "high polyreactivity"}, {"sequence": "QVQLVESGGGLVQAGGSLRLSCAASGSIFRQYAMGWYRQAPGKERELVATISRSGGSTYYADSVKGRFTISRDNAKNTVYLQMNSLKPEDTAVYYCAASRYKKSYREWWVGSWGQGTQVTVSS", "polyreactivity (PSR sort gate)": "high polyreactivity"}, {"sequence": "QVQLVESGGGLVQAGGSLRLSCAASGSIFRRNAMGWYRQAPGKEREFVAAITWIGGSTYYADSVKGRFTISRDNAKNTVYLQMNSLKPEDTAVYYCAAKYRTYPSNYYYWGQGTQVTVSS", "polyreactivity (PSR sort gate)": "high polyreactivity"}, {"sequence": "QVQLVESGGGLVQAGGSLRLSCAASGSIFRRYAMGWYRKAPGKEREMVAGISRTGSRTYYADSVKGRFTISRDNAKNTVYLQMNSLKPEDTAVYYCAALGPGRSGFFRYDYWGQGTQVTVSS", "polyreactivity (PSR sort gate)": "high polyreactivity"}, {"sequence": "QVQLVESGGGLVQAGGSLRLSCAASGSIFRRYAMGWYRQAPGKERELVAGITRGGSTYYADSVKGRFTISRDNAKNTVYLQMNSLKPEDTAVYYCNAVRRGLPVVGAYDYWGQGTQVTVSS", "polyreactivity (PSR sort gate)": "high polyreactivity"}, {"sequence": "QVQLVESGGGLVQAGGSLRLSCAASGSIFRRYAMGWYRQAPGKERELVAGITRGGSTYYADSVKGRFTISRDNAKNTVYLQMNSLKPEDTAVYYCNRAARYGEYDYWGQGTQVTVSS", "polyreactivity (PSR sort gate)": "high polyreactivity"}, {"sequence": "QVQLVESGGGLVQAGGSLRLSCAASGSIFRRYAMGWYRQAPGKERELVATITSTDSTNYADSVKGRFTISRDNAKNTVYLQMNSLKPEDTAVYYCAKRPYHYRRNSEYYYWGQGTQVTVSS", "polyreactivity (PSR sort gate)": "low polyreactivity"}, {"sequence": "QVQLVESGGGLVQAGGSLRLSCAASGSIFRRYDMGWYRQAPGKERELVAAISSSGGSTYYADSVKGRFTISRDNAKNTVYLHMKSLKPEDTAVYYCAADIYDYDRSEYTEYDYWGQGTQVTVSS", "polyreactivity (PSR sort gate)": "low polyreactivity"}, {"sequence": "QVQLVESGGGLVQAGGSLRLSCAASGSIFRRYTMGWYRPAPGKERELVAAISRVGNTNYADSVKGRFTISRDNAKNTVYLPMNSLKPEDTAVYYCAARAIGYRYTPGLNYWGQGTQLTVSS", "polyreactivity (PSR sort gate)": "high polyreactivity"}, {"sequence": "QVQLVESGGGLVQAGGSLRLSCAASGSIFRSDPMGWYRQAPGKEREFVASITYRGGRTYYADSVKGRFTISRDNAKNTVSLQLNSLKPEDSAVYYCAARTRAGAWTSKYHDYWGQGTQVTVSS", "polyreactivity (PSR sort gate)": "high polyreactivity"}, {"sequence": "QVQLVESGGGLVQAGGSLRLSCAASGSIFRSNALGWYRQAPGKERELVAAISWSGGRTYYADSVKGRFTISRDNAKNTVSLQMTSLKPEDTAVYYCAVGFRTLHGDYGYWGQGTQVTVSS", "polyreactivity (PSR sort gate)": "high polyreactivity"}, {"sequence": "QVQLVESGGGLVQAGGSLRLSCAASGSIFRSNAMGWYRQAPGKERELVAAISRSGGRTYYADSVKGRFTISRDNAKNTVYLLMNSLKPEDTAVYYCAAQVVRSLKYEYWGQGTQVTVSS", "polyreactivity (PSR sort gate)": "high polyreactivity"}, {"sequence": "QVQLVESGGGLVQAGGSLRLSCAASGSIFRSNAMGWYRQAPGKERELVAAISWRGGRTYYADSVKGRFTISRDNAKNSVYLLMNSLKPEDTAVYYCATEVEPYAYGYWGQGTQVTVSS", "polyreactivity (PSR sort gate)": "high polyreactivity"}, {"sequence": "QVQLVESGGGLVQAGGSLRLSCAASGSIFRSNAMGWYRQAPGQERELVAAISRSGGRTYYADSVKGRFTISRDNAKNTVYLQMNSLKPEDTAVYYCAAQVVRSLKYEYWGQGTQVTVSS", "polyreactivity (PSR sort gate)": "high polyreactivity"}, {"sequence": "QVQLVESGGGLVQAGGSLRLSCAASGSIFRSNGMGWYREAPGKERELVAAITSSGGSTYYADTVKGRFTISRDNAKNTVYLHMNSLKPEDTAVYYCAKRWNWSYNYWGQGTQVTVSS", "polyreactivity (PSR sort gate)": "high polyreactivity"}, {"sequence": "QVQLVESGGGLVQAGGSLRLSCAASGSIFRSYAMGWYRQAPGKEREFVAAISNGGRTSYADSVKGRFTISRDNAKYNVYLQMNSLKPEDTAVYDCNARYSRRAMGYWGQGTQVTVSS", "polyreactivity (PSR sort gate)": "high polyreactivity"}, {"sequence": "QVQLVESGGGLVQAGGSLRLSCAASGSIFRSYAMGWYRQAPGKERELVAAIRGGGSTNYADSVKGRFTISRDNAKNTVYLQMNSLKPEDTAVYYFAADKKTKVDWGQGTQVTVSS", "polyreactivity (PSR sort gate)": "high polyreactivity"}, {"sequence": "QVQLVESGGGLVQAGGSLRLSCAASGSIFRSYAMGWYRQAPGKERELVAAISRGGSTTYADSVKGRFTISRDNAKNTVYLQMNSLKPEDTAVYYCAVANVYYEGYDYWGQGTQVTVSS", "polyreactivity (PSR sort gate)": "low polyreactivity"}, {"sequence": "QVQLVESGGGLVQAGGSLRLSCAASGSIFRSYAMGWYRQAPGKERELVAAISWRGGRTYYADSVKGRFTISRDNAKNTVYLQMNSLKPEDTAVYYCAVDFYVYRWSPYGDVYRYDYWGQGTQVTVSS", "polyreactivity (PSR sort gate)": "high polyreactivity"}, {"sequence": "QVQLVESGGGLVQAGGSLRLSCAASGSIFRSYAMGWYRQAPGKERELVAAITSRGSSTYYADSVTGRFTISRDNAKNTVYLQMNSLKPEDSAVYYCATVFPYSARDGLDYWGQGTQVTVSS", "polyreactivity (PSR sort gate)": "high polyreactivity"}, {"sequence": "QVQLVESGGGLVQAGGSLRLSCAASGSIFRSYAMGWYRQAPGKQREFVAAITGSGGRTYYADSVKGRFTISRDNAKNTVYLQMNCLKPEDTAVYYCAAALSRRYKSGGPYGFNYWGQGTQVTVSS", "polyreactivity (PSR sort gate)": "high polyreactivity"}, {"sequence": "QVQLVESGGGLVQAGGSLRLSCAASGSIFRSYAMGWYRQAPGTERELVDGISYSGGSTYYADSVKGRFTISRDNAKNTVYLQMNSLKPEDTAVYYCNVDGGTYFFFVGAWGEYDYWGQGTQVTVSS", "polyreactivity (PSR sort gate)": "low polyreactivity"}, {"sequence": "QVQLVESGGGLVQAGGSLRLSCAASGSIFRTNAMGWYRQAPGKERELVAAITGRGGSTYYADSVKGRFTISRNNAKNTVYLQMNSLKPEDTAVYDCAADTWYGYRYKYDYWGQGTQVTVSS", "polyreactivity (PSR sort gate)": "high polyreactivity"}, {"sequence": "QVQLVESGGGLVQAGGSLRLSCAASGSIFRTNAMGWYRQAPGKERELVAAITTSGVTTYYADSVKGRFTISRDNPTNTVYLQMNSLKPEDTAVYYCNARDGRYLPRYDYWRQGTQVTVSS", "polyreactivity (PSR sort gate)": "low polyreactivity"}, {"sequence": "QVQLVESGGGLVQAGGSLRLSCAASGSIFRTYAMGWYRQAPGKEREWVAAISSTGGRTYYADSVKGRFTISRDNAKNTVYLQMNSLKPEDTAVYYCAKRYRYITYRYDYWGQGTQVTVSS", "polyreactivity (PSR sort gate)": "high polyreactivity"}, {"sequence": "QVQLVESGGGLVQAGGSLRLSCAASGSIFRTYAMGWYRQAPGKESELVAAISRSGSSTYYADSVKGRFTISRDNAKNTVYLQRTSLQPEDTAVYYCAAYWPLSYGARGSNYWGQGTQVTVSS", "polyreactivity (PSR sort gate)": "high polyreactivity"}, {"sequence": "QVQLVESGGGLVQAGGSLRLSCAASGSIFRVNAMGWYRQAPGKERELVAAISCRGASTYYADSVKGRFTISRDNAKNTVYLQMNSLKPVDTAVYYCAAYGYSIGPYYYWGQGTQVTGSS", "polyreactivity (PSR sort gate)": "high polyreactivity"}, {"sequence": "QVQLVESGGGLVQAGGSLRLSCAASGSIFRVNDMGWYRQAPGKERELVATISRSGAITYYADSVKGRFTISRDNAKNTVNLQMNSLKPEDNAVYYCAADFLSRDWGQGTQVTLSS", "polyreactivity (PSR sort gate)": "low polyreactivity"}, {"sequence": "QVQLVESGGGLVQAGGSLRLSCAASGSIFRVYAMGWYRQAPGKERELVAAISRGGGTTYYADSVKGRFTISRDNAKNTVYLQMNRLKPEDTAVYYCASEYLGYYYQFDSWGQGTQVTVSS", "polyreactivity (PSR sort gate)": "high polyreactivity"}, {"sequence": "QVQLVESGGGLVQAGGSLRLSCAASGSIFRVYAMGWYRQAPGKERELVAAITNGGNTNYADSVKGRFTISRDNAKNTVYLQMNSLKPEDTAVYYCAADPLRTPGARHTPYKGTYDYWGQGTQVTVSS", "polyreactivity (PSR sort gate)": "high polyreactivity"}, {"sequence": "QVQLVESGGGLVQAGGSLRLSCAASGSIFRVYAMGWYRQAPGKERELVAGISSRGGTSTYYADSVKGRFTISRDNAKNSVYLQMNSLNPEETAVYYCAVQVRYPGYDYWGQGTQVTVSS", "polyreactivity (PSR sort gate)": "low polyreactivity"}, {"sequence": "QVQLVESGGGLVQAGGSLRLSCAASGSIFRWNAMGWSRQAPGKERELVAAITWDGGRTYYADSVKGRFTISRDNAKNTVYLQMNSLKPEDTAVYYCNADNARGRSGVRRYYWGQGTQVTVSS", "polyreactivity (PSR sort gate)": "high polyreactivity"}, {"sequence": "QVQLVESGGGLVQAGGSLRLSCAASGSIFRWNAMGWYRQAPGKEREFVAAISGRGGSTYYADSVKGRFTISRDNAKNTVYLQMNSLKPEDTAVYYCAADQAHLATRGFDYWGQGTQVTVSS", "polyreactivity (PSR sort gate)": "high polyreactivity"}, {"sequence": "QVQLVESGGGLVQAGGSLRLSCAASGSIFRWYAMGWYRQAPGKERELVAAITGSGGRTYYADSVKGRFTISRDNAKNTVYLQMNSLNPEDTAVYYCATRYGREDYWGQGTQVTVSS", "polyreactivity (PSR sort gate)": "high polyreactivity"}, {"sequence": "QVQLVESGGGLVQAGGSLRLSCAASGSIFRYAMGWYRQAPGKERELVATISESGGRTYYADSVKGRFTISRDNANNTVYLQMNSLKPEDTAVYYCAADLKYYYGYRPWFQGGYWGQGTQVTVSS", "polyreactivity (PSR sort gate)": "low polyreactivity"}, {"sequence": "QVQLVESGGGLVQAGGSLRLSCAASGSIFRYNAMGWYRQAPGKERELVAAISLNTGSTYYADSVKGRFTISRDNAKNTVYLQMNSLKPEDTAVYYCNADDYTYATYEYDYWGQGTQVTVSS", "polyreactivity (PSR sort gate)": "low polyreactivity"}, {"sequence": "QVQLVESGGGLVQAGGSLRLSCAASGSIFRYNAMGWYRQAPGKERELVAAITWSGGSTYYADSVKGRFTISRDNAKNTVYLQMNSLKPEDTAVYYCAASPYPHYRRYTGGFYYWGQGTQVTVSS", "polyreactivity (PSR sort gate)": "high polyreactivity"}, {"sequence": "QVQLVESGGGLVQAGGSLRLSCAASGSIFRYNAMGWYRQAPGKERELVAGISWSGGSTYYADSVKGRFTISRDNAKNTVYLQMNSLKPEDTAVYYCATRVGRYWTAGYYWGQGTQVTVSS", "polyreactivity (PSR sort gate)": "high polyreactivity"}, {"sequence": "QVQLVESGGGLVQAGGSLRLSCAASGSIFRYNAMGWYRQAPGKERELVASINAGGGSTYYADSVKGRFTISRDNAKNTVYLLMNSLKPEDTAVYDCAAVAHSATRFRYYWRYDYWGQGTQVTVSS", "polyreactivity (PSR sort gate)": "high polyreactivity"}]}]}
